The values that follow come from PMC5650148, “Ssn6-Tup1 global transcriptional co-repressor: Role of the N-terminal glutamine-rich region of Ssn6” (PLoS ONE, 2017).

The chains are these.
B4: Tup1 N72, the Ssn6-interaction and Tup1 oligomerization domain (domain or fragment, yeast, UniProt P16649 1-72, looked up)
chain: MTASVSNTQNKLNELLDAIRQEFLQVSQEANTYRLQNQKDYDFKMNQQLAEMQQIRNTVYELELTHRKMKDA
notes: One molecule stands for both two-hybrid forms: LexA-Tup1 N72 as bait and Tup1 N72-Vp16 as prey; also called LexA-Tup1 N72; Tup1 N72-Vp16; source: yeast two-hybrid fusion (LexA hybrid from YCp91; Vp16 hybrid from YEp92)
B5: Ssn6 Sc3T (N175), the 175 amino-terminal residues of Ssn6 (domain or fragment, yeast, UniProt P14922 1-175, looked up)
chain: MNPGGEQTIMEQPAQQQQQQQQQQQQQQQQAAVPQQPLDPLTQSTAETWLSIASLAETLGDGDRAAMAYDATLQFNPSSAKALTSLAHLYRSRDMFQRAAELYERALLVNPELSDVWATLGHCYLMLDDLQRAYNAYQQALYHLSNPNVPKLWHGIGILYDRYGSLDYAEEAFAK
notes: Ssn6 (also known as Cyc8), yeast, the 175 amino-terminal residues: NTpolyQ tail and TPRs 1 to 3; One molecule stands for both two-hybrid forms of the same fragment: LexA-Sc3T as bait and Sc3T-Vp16 as prey; A chain carries either LexA or Vp16, never both; The LexA form was also used in the repression assay; also called LexA-Ssn6 Sc3T; LexA-Sc3T (N175); source: yeast two-hybrid fusion (LexA hybrid …)

Data set [1] addresses B4. Put plainly: cell-based or functional assay.
Data set [2] addresses B5. Put plainly: two-hybrid; LexA hybrids as DNA-binding baits, Vp16 or Gal4 activation domain hybrids as preys; wild-type yeast strain; lacZ reporter JK103 with four LexA operators upstream of the GAL1 TATA element; beta-galactosidase activity in Miller units, average of at least three transformants. To be noted: partners not purified.
Data set [3] concerns the molecule itself. Briefly: SEC; Biogel P100 gel filtration in 20 mM phosphate buffer pH 8.0, 300 mM NaCl, 1 mM DTT; calibrated with protein standards; self-association of the fragment.
Data set [4] concerns the molecule itself. Put plainly: two-hybrid; LexA hybrids as DNA-binding baits, Vp16 or Gal4 activation domain hybrids as preys; wild-type yeast strain; lacZ reporter JK103 with four LexA operators upstream of the GAL1 TATA element; beta-galactosidase activity in Miller units, average of at least three transformants.
The target of data set [5] is B4. The description is as above. To be noted: partners not purified.

B1: Ssn6 Δ45 (amino acids 46-181), Vp16 activation hybrid (domain or fragment, yeast, UniProt P14922 46-181, looked up)
chain: AETWLSIASLAETLGDGDRAAMAYDATLQFNPSSAKALTSLAHLYRSRDMFQRAAELYERALLVNPELSDVWATLGHCYLMLDDLQRAYNAYQQALYHLSNPNVPKLWHGIGILYDRYGSLDYAEEAFAKVLELDP
notes: Ssn6 (also known as Cyc8), yeast, amino acids 46-181; lacks the entire NTpolyQ tail (1-45); the four N-terminal TPRs; also called Ssn6 Δ45-Vp16; Ssn6 Δ45-Vp1; source: yeast two-hybrid fusion (YEp92)
In the case of B1, the “fold repression of the 4Lop-CYC1 lacZ reporter by LexA-Ssn6 Δ45 in the wild-type strain (endogenous Tup1)” value in data set [1] amounted to 1 fold. Further, the beta-galactosidase activity in data set [2] was found to be 122 Miller units.

B2: Ssn6 Δ45 (amino acids 46-181), purified recombinant fragment (domain or fragment, yeast, UniProt P14922 46-181, looked up)
chain: AETWLSIASLAETLGDGDRAAMAYDATLQFNPSSAKALTSLAHLYRSRDMFQRAAELYERALLVNPELSDVWATLGHCYLMLDDLQRAYNAYQQALYHLSNPNVPKLWHGIGILYDRYGSLDYAEEAFAKVLELDP
notes: Ssn6 (also known as Cyc8), yeast, amino acids 46-181; the four N-terminal TPRs, without the NTpolyQ tail; Cloned in pGEX-2T; GST was removed with thrombin on the column; also called GST-Δ45; source: E. coli BL21(DE3), purified (Glutathione Sepharose 4B, thrombin digestion, Biogel P100 gel filtration)
As to B2, in data set [3], the “stoichiometry N” value is approximately 3.

B3: Ssn6 Δ29 (amino acids 30 to 180) (domain or fragment, yeast, UniProt P14922 30-180, looked up)
chain: QAAVPQQPLDPLTQSTAETWLSIASLAETLGDGDRAAMAYDATLQFNPSSAKALTSLAHLYRSRDMFQRAAELYERALLVNPELSDVWATLGHCYLMLDDLQRAYNAYQQALYHLSNPNVPKLWHGIGILYDRYGSLDYAEEAFAKVLELD
notes: Ssn6 (also known as Cyc8), yeast, amino acids 30 to 180; lacks residues 1-29 of the NTpolyQ tail and contains three intact TPRs; also called Ssn6 Δ29-Gal4; LexA-Ssn6 Δ29; source: yeast two-hybrid fusion (clone isolated from a Gal4pAD yeast genomic library, pACTII)
Regarding B3, in data set [1], the “fold repression of the 4Lop-CYC1 lacZ reporter by LexA-Ssn6 Δ29 in the wild-type strain (endogenous Tup1)” value is 1 fold. Also, the beta-galactosidase activity in data set [2] amounted to 93 Miller units.

Regarding B4, the beta-galactosidase activity turned out to be 51 Miller units in data set [2] and 56 Miller units in data set [4].

B5: in data set [1], the “fold repression of the 4Lop-CYC1 lacZ reporter by LexA-Ssn6 Sc3T in the wild-type strain (endogenous Tup1)” value is 12 fold. The molecule further came in with a beta-galactosidase activity in data set [5] of 80 Miller units.
